Laboratory results published in patent publication US20130071417A1 (GOVERNING COUNCIL OF THE UNIVERSITY OF TORONTO, published 2013).

T1: His-tagged rCEA A3B3 domain (residues 445-656, C-terminal His-tag) (human, UniProt P06731 479-690)
T1 construct: also called rCEA A3B3 fragment
T1 sequence: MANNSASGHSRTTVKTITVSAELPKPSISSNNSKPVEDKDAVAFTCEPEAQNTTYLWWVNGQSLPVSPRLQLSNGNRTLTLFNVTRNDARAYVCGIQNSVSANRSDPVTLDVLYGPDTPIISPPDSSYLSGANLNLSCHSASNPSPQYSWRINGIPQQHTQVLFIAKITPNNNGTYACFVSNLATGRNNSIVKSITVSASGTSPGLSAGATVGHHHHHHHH

T2: full length tumour glycoform of human CEA (Sigma-Aldrich) (human, UniProt P06731 35-685, glycosylated (tumour glycoform))
T2 construct: mature; Bought protein; also called FL-CEA; full length CEA
T2 sequence (looked up): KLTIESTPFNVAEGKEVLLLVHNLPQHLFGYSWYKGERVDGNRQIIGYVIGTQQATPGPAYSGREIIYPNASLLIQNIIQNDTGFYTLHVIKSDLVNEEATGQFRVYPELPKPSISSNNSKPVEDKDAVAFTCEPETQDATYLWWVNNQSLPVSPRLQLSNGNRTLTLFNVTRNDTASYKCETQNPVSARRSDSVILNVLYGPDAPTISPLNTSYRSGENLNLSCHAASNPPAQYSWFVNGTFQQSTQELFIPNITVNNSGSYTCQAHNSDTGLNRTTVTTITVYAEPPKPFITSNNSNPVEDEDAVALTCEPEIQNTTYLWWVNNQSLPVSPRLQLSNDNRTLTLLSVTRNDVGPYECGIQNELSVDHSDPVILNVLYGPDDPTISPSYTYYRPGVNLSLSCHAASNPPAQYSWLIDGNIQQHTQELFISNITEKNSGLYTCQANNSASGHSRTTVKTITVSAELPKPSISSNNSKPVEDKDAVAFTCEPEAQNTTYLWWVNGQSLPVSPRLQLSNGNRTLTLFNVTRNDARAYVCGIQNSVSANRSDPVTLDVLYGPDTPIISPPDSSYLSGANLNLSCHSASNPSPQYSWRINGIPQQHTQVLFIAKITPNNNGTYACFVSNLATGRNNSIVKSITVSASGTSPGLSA

B1: FLAG-tagged rCEA N (CEA residues 1-214 with His-tag and FLAG epitope) (other, human, UniProt P06731 35-248, looked up, not shown: small tags and cut ends)
chain: KLTIESTPFNVAEGKEVLLLVHNLPQHLFGYSWYKGERVDGNRQIIGYVIGTQQATPGPAYSGREIIYPNASLLIQNIIQNDTGFYTLHVIKSDLVNEEATGQFRVYPELPKPSISSNNSKPVEDKDAVAFTCEPETQDATYLWWVNNQSLPVSPRLQLSNGNRTLTLFNVTRNDTASYKCETQNPVSARRSDSVILNVLYGPDAPTISPLNTS
notes: range 1-214; Made in E. coli; The extra C-terminal CEA residues were added for stability and yield; also called FLAG-tagged rCEA N domain; FLAG-tagged N domain

Legend:
[1] = target: T1, His-tagged rCEA A3B3 domain (residues …); assay: ELISA; untagged rCEA N coated, His-tagged module in solution, anti-His HRP detection
[2] = target: B1; assay: ELISA; target coated (2 µg per well), FLAG-tagged rCEA N titrated, anti-FLAG M2 HRP detection
Procedure: (§1) Briefly, 96-well flat-bottomed Falcon microtiter plates (Becton-Dickinson Biosciences; Franklin Lakes, N.J.) were coated with 2 μg of purified CEA modules or full length CEA per well. After blocking with PBS containing Tween (0.05% v/v) and bovine serum albumin (1% w/v), the plates were then incubated for one hour at room temperature with increasing concentrations of the FLAG-tagged rCEA N diluted in PBS-Tween (0.05%; 100 μL). The presence of bound FLAG-tagged rCEA was detected by incubating the plates for 1 hour at room temperature with horseradish peroxidase (HRP) coupled anti-FLAG monoclonal antibody M2 (1:5,000 dilution; Sigma-Aldrich). The chromogenic HRP substrate 3,3′,5,5′-tetramethylbenzidine (TMB; Sigma) was used to measure at 450 nm the amount of bound FLAG-tagged N domain.

[3] = target: T1, His-tagged rCEA A3B3 domain (residues …); assay: as above
Procedure: as §1

[4] = target: T2, full length tumour glycoform of human …; assay: as above
Procedure: as §1

Binder	binding result [1]	binding result [2]	binding result [3]	binding result [4]
untagged rCEA N domain (cleaved rCEA N, residues 1-132) (other, Made in E. coli, so it has no N-glycans; also called WT rCEA N domain; untagged WT rCEA N domain) KLTIESTPFNVAEGKEVLLLVHNLPQHLFGYSWYKGERVDGNRQIIGYVIGTQQATPGPAYSGREIIYPNASLLIQNIIQNDTGFYTLHVIKSDLVNEEATGQFRVYPELPKPSISSNNSKPVEDKDAVAFT	binds	binds		
B1			binds	binds
